Results from patent publication US20220064218A1 (Bicycle, published 2022).
*1 amine or outer side, *2 acyl side, *3 side chain or, on linkers, in order; H or OH if unused. Bridges are numbered along the chain shown (N, C = ends). Where no end group is shown, it is not given here. TATA = O=C(CC[*:1])N1CN(C(=O)CC[*:2])CN(C(=O)CC[*:3])C1

Target: T1, human CD38 (human, UniProt P28907 43-300, limits assumed)
T1 construct: also called hCD38
T1 sequence (looked up): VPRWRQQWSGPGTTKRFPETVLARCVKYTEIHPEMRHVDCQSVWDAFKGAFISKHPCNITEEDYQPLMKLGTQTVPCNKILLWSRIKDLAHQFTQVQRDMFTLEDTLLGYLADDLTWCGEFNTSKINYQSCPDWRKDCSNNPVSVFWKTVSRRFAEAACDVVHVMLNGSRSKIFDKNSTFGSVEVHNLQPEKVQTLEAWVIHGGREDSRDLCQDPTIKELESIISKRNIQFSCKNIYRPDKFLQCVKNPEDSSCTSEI
Assay: fluorescence polarisation competition with the labelled tracer peptide

B1: 66-50-16-T01-N001 (peptide)
peptide: ACYWNPFTACWSCEND
modifications: linker 2-10-13 via TATA (inferred)
notes: Synthetic bicyclic peptide cyclised with TATA
In the case of B1, the Ki is reported as 90 nM.

B2: 66-50-19-T02-N001 (peptide)
peptide: ACYWNPFTACYSCTEN
modifications: linker 2-10-13 via TATA (inferred)
notes: Synthetic bicyclic peptide cyclised with TATA; also called 66-50-19-T002-N001
B2 was tested, and the Ki was 316 nM.
